Experimental data taken from patent publication US20210079074A1 (Alector, published 2021).
Where two headings read alike, the source gives them in different places.

Legend:
[1] = target: T1, recombinant MS4A4A soluble polypeptide JS1; assay: ELISA, 1 ug/ml antibody
T1 construct: also called JS1.His; loop grafted antigen
Method: (§1) Anti-MS4A4A antibodies of the present disclosure were tested for their ability to bind to the different recombinant MS4A4A soluble polypeptides, as described in Example 2, as follows. Nucleic acid encoding the VH and VL domains of humanized anti-MS4A4A antibodies of the present disclosure were cloned into pcDNA3.4 vector which contains either the human IgG1 heavy chain constant domain or human kappa constant domain. The humanized anti-MS4A4A antibodies were expressed in Expi293 cells and were purified by Mab select antibody purification resin (GE Healthcare Life Science, cat#17519902) following the manufacture's protocol. ELISA was performed to measure binding of anti-MS4A4A antibodies of the present disclosure the recombinant MS4A4A soluble polypeptides. 1 μg/ml biotinylated antigens were preincubated on the streptavidin-coated ELISA plates (Thermo Scientific, cat#PI15120) for 1 hour. Plates were washed 3 times, followed by the addition of antibodies (1 μg/ml, 0.33 μg/ml, and 0.11 μg/ml antibodies. Plates were incubated at room temperature with shaking for 1 hr, washed 3 times, then 1/2500 dilution of HRP conjugates goat anti human kappa antibodies added (SigmaAldrich cat#. A7164-1ML).

human MS4A4A [2] = target: T2, human MS4A4A (human, UniProt Q96JQ5 1-239); assay: FACS, U937-huMS4A4A, 5 ug/ml
Method: (§2) Anti-MS4A4A antibodies tested were either mouse IgGs purified from hybridoma supernatant or human IgG1 Fc chimeras produced recombinantly in Expi293 cells. Affinity binding to cells was determined as follows. Briefly, cells were harvested, washed, and labeled with Aqua Live/Dead for viability discrimination. After a wash with PBS, 2×10\hat{ }4 cells were aliquoted per well in 96-well U-bottom plates and incubated with 50 μL of purified anti-MS4A4A antibody at various concentrations (3× dilutions starting at 10 μg/mL) in FACS buffer (PBS+2% FBS+1 mM EDTA). After this primary incubation, the supernatant was removed via centrifugation, washed 2× with 150 μL of ice-cold FACS buffer, and incubated with the appropriate secondary antibody on ice for 15 minutes. Following the secondary antibody incubation, the cells were again washed 2× with ice-cold FACS buffer and resuspended in a final volume of 200 μL of FACS buffer. Flow cytometry analysis was performed on a FACSCanto system (BD Biosciences). Binding data was expressed as Median Fluorescent Intensity (MFI).
(§3) These experiments were performed using anti-MS4A4A antibodies at a concentration of 5 μg/ml and were assayed for cell binding by flow cytometry.

[3] = target: T3, recombinant MS4A4A soluble polypeptide JS5; assay: ELISA, 0.11 ug/ml antibody
T3 construct: also called JS5.His
Method: as §1

[4] = target: T3, recombinant MS4A4A soluble polypeptide …; assay: ELISA, 1 ug/ml antibody
Method: as §1

human MS4A4A [5] = target: T2, human MS4A4A; assay: FACS, U937-huMS4A4A, 5 ug/ml; remark: listed apart in the source
Method: as §2, §3

[6] = target: T3, recombinant MS4A4A soluble polypeptide …; assay: ELISA, 0.33 ug/ml antibody
Method: as §1

Row | Binder | OD450 [1] | MFI (human MS4A4A [2]) | ELISA OD [3] | ELISA OD [4] | MFI (human MS4A4A [5]) | ELISA OD [6]
1 | anti-MS4A4A antibody 4A-308 (antibody, human IgG1, V domains shown, human IgG1/kappa) VH: QVQLVQSGAEVKKPGASVKVSCKASGYTFTNYWMQWVRQAPGQGLEWMGATHPGHGDTRYAQKFQGRVTMTADKSTSTAYMELSSLRSEDTAVYYCAREEVYYGFRSYWYFDVWGRGTLVTVSS VL: DIVMTQSPDSLAVSLGERATINCRASESVDNYGVSFMNWYQQKPGQPPKLLIYGASNQGSGVPDRFSGSGSGTDFTLTISSLQAEDVAVYYCQQSKEVPPTFGGGTKVEIK | 0.12 | 97.2 |  |  |  | 
2 | anti-MS4A4A antibody 4A-309 (antibody, human IgG1, V domains shown, human IgG1/kappa) VH: QVQLVQSGAEVKKPGASVKVSCKASGYTFTNYWMQWVRQAPGQGLEWMGATHPGHGDTRYAQKFQGRVTLTADKSISTAYMELSRLRSDDTVVYYCAREEVYYGFRSYWYFDVWGRGTLVTVSS VL: EIVLTQSPATLSLSPGERATLSCRASESVDNYGVSFMNWYQQKPGQAPRLLIYGASNQGSGIPARFSGSGSGTDFTLTISSLEPEDFAVYYCQQSKEVPPTFGGGTKVEIK | 0.115 | 131 |  |  |  | 
3 | anti-MS4A4A antibody 4A-346 (antibody, human IgG1, V domains shown, humanized 4A-21; human IgG1/kappa) VH: QVQLVQSGAEVKKPGASVKVSCKASGYIFTSYGLSWVRQAPGQGLEWMGWINTYSGVPTYAQKFQGRVTMTRDTSTSTVYMELSSLRSEDTAVYYCARSLVDYWGQGTLVTVSS VL: DIVMTQTPLSLSVTPGQPASISCKSSQSLLYSDGKTYLSWYLQKPGQPPQLLIYLVSKLDSGVPDRFSGSGSGTDFTLKISRVEAEDVGVYYCWQGIDFHQTFGGGTKVEIK | 0.148 | 56.1 |  |  |  | 
4 | anti-MS4A4A antibody 4A-338 (antibody, human IgG1, V domains shown, humanized 4A-21; human IgG1/kappa) VH: QVQLVQSGSELKKPGASVKVSCKASGYIFTSYGLSWVRQAPGQGLEWMGWINTYSGVPTYAQGFTGRFVFSLDTSVSTTYLQISSLKAEDTAVYYCARSLVDYWGQGTLVTVSS VL: DVVMTQTPLSSPVTLGQPASISCKSSQSLLYSDGKTYLSWLQQRPGQPPRLLIYLVSKLDSGVPDRFSGSGAGTDFTLKISRVEAEDVGVYYCWQGIDFHQTFGGGTKVEIK | 1.65 | 222 |  |  |  | 
5 | anti-MS4A4A antibody 4A-348 (antibody, human IgG1, V domains shown, humanized 4A-21; human IgG1/kappa) VH: QIQLVQSGAEVKKPGASVKVSCKASGYIFTSYGLSWVRQAPGQGLEWMGWINTYSGVPTYAQKFQGRVTMTRDTSTSTVYMELSSLRSEDTAVYYCARSLVDYWGQGTLVTVSS VL: DIVMTQTPLSLSVTPGQPASISCKSSQSLLYSDGKTYLSWYLQKPGQPPQLLIYLVSKLDSGVPDRFSGSGSGTDFTLKISRVEAEDVGVYYCWQGIDFHQTFGGGTKVEIK | 0.131 | 47.8 |  |  |  | 
6 | anti-MS4A4A antibody 4A-353 (antibody, V domains shown, full human IgG) VH: QVQLVQSGSELKKPGASVKVSCKASGYIFTSYGLSWVRQAPGQGLEWMGWINTYSGVPTYAQGFTGRFVFSLDTSVSTAYLQISSLKAEDTAVYYCARTLADYWGQGTLVTVSS VL: DVVMTQSPLSLPVTLGQPASISCKSSRSLLYSEGKTYLSWFQQRPGQSPRRLIYLVSKLDSGVPDRFSGSGSGTDFTLKISRVEAEDVGVYYCWQGIDFHQTFGGGTKVEIK |  |  | 0.63 | 0.996 | 10400 | 0.85
7 | anti-MS4A4A antibody 4A-344 (antibody, human IgG1, V domains shown, humanized 4A-21; human IgG1/kappa) VH: QVQLVQSGAEVKKPGASVKVSCKASGYIFTSYGLSWVRQAPGQGLEWMGWINTYSGVPTYAQKFQGRVTMTRDTSTSTVYMELSSLRSEDTAVYYCARSLVDYWGQGTLVTVSS VL: DVVMTQTPLSLSVTPGQPASISCKSSQSLLYSDGKTYLSWYLQKPGQPPQRLIYLVSKLDSGVPDRFSGSGSGTDFTLKISRVEAEDVGVYYCWQGIDFHQTFGGGTKVEIK | 0.719 | 427 |  |  |  | 
8 | anti-MS4A4A antibody 4A-349 (antibody, human IgG1, V domains shown, humanized 4A-21; human IgG1/kappa) VH: QIQLVQSGAEVKKPGASVKVSCKASGYIFTSYGLSWVRQAPGQGLEWMGWINTYSGVPTYAQKFQGRVTMTLDTSTSTTYMELSSLRSEDTAVYYCARSLVDYWGQGTLVTVSS VL: DIVMTQTPLSLSVTPGQPASISCKSSQSLLYSDGKTYLSWYLQKPGQPPQLLIYLVSKLDSGVPDRFSGSGSGTDFTLKISRVEAEDVGVYYCWQGIDFHQTFGGGTKVEIK | 0.331 | 142 |  |  |  | 
9 | anti-MS4A4A antibody 4A-343 (antibody, human IgG1, V domains shown, humanized 4A-21; human IgG1/kappa) VH: QIQLVQSGAEVKKPGASVKVSCKASGYIFTSYGLSWVRQAPGQGLEWMGWINTYSGVPTYAQKFQGRVTMTLDTSTSTTYMELSSLRSEDTAVYYCARSLVDYWGQGTLVTVSS VL: DVVMTQTPLSLSVTPGQPASISCKSSQSLLYSDGKTYLSWYLQKPGQPPQRLIYLVSKLDSGVPDRFSGSGSGTDFTLKISRVEAEDVGVYYCWQGIDFHQTFGGGTKVEIK | 1.37 | 513 |  |  |  | 

Results, then the binder that gave them:

Row | OD450 [1] | MFI (human MS4A4A [2]) | ELISA OD [3] | ELISA OD [4] | MFI (human MS4A4A [5]) | ELISA OD [6] | Binder
10 | 0.116 | 89.7 |  |  |  |  | anti-MS4A4A antibody 4A-301 (antibody, human IgG1, V domains shown, human IgG1/kappa) VH: QVQLVQSGAEVKKPGASVKVSCKASGYTFTNYWMQWVRQAPGQGLEWMGATHPGHGDTRYAQKFQGRVTMTRDTSTSTVYMELSSLRSEDTAVYYCAREEVYYGFRSYWYFDVWGRGTLVTVSS VL: DIVMTQSPDSLAVSLGERATINCRASESVDNYGVSFMNWYQQKPGQPPKLLIYGASNQGSGVPDRFSGSGSGTDFTLTISSLQAEDVAVYYCQQSKEVPPTFGGGTKVEIK
11 | 0.11 | 112 |  |  |  |  | anti-MS4A4A antibody 4A-304 (antibody, human IgG1, V domains shown, human IgG1/kappa) VH: QVQLVQSGAEVKKPGASVKVSCKASGYTFTNYWMQWVRQAPGQGLEWMGATHPGHGDTRYAQKFQGRVTMTRDTSTSTVYMELSSLRSEDTAVYYCAREEVYYGFRSYWYFDVWGRGTLVTVSS VL: EIVLTQSPGTLSLSPGERATLSCRASESVDNYGVSFMNWYQQKPGQAPRLLIYGASNQGSGIPDRFSGSGSGTDFTLTISRLEPEDFAVYYCQQSKEVPPTFGGGTKVEIK
12 | 1.33 | 218 |  |  |  |  | anti-MS4A4A antibody 4A-337 (antibody, human IgG1, V domains shown, humanized 4A-21; human IgG1/kappa) VH: QVQLVQSGSELKKPGASVKVSCKASGYIFTSYGLSWVRQAPGQGLEWMGWINTYSGVPTYAQGFTGRFVFSLDTSVSTTYLQISSLKAEDTAVYYCARSLVDYWGQGTLVTVSS VL: DIVMTQTPLSSPVTLGQPASISCKSSQSLLYSDGKTYLSWLQQRPGQPPRLLIYLVSKLDSGVPDRFSGSGAGTDFTLKISRVEAEDVGVYYCWQGIDFHQTFGGGTKVEIK
13 | 1.76 | 284 |  |  |  |  | anti-MS4A4A antibody 4A-339 (antibody, human IgG1, V domains shown, humanized 4A-21; human IgG1/kappa) VH: QVQLVQSGSELKKPGASVKVSCKASGYIFTSYGLSWVRQAPGQGLEWMGWINTYSGVPTYAQGFTGRFVFSLDTSVSTTYLQISSLKAEDTAVYYCARSLVDYWGQGTLVTVSS VL: DVVMTQTPLSSPVTLGQPASISCKSSQSLLYSDGKTYLSWLQQRPGQPPRRLIYLVSKLDSGVPDRFSGSGAGTDFTLKISRVEAEDVGVYYCWQGIDFHQTFGGGTKVEIK
14 |  |  | 0.655 | 0.985 | 11000 | 0.885 | anti-MS4A4A antibody 4A-352 (antibody, V domains shown, full human IgG) VH: QVQLVQSGSELKKPGASVKVSCKASGYIFTSYGLSWVRQAPGQGLEWMGWINTYSGVPTYAQGFTGRFVFSLDTSVSTAYLQISSLKAEDTAVYYCARTLADYWGQGTLVTVSS VL: DVVMTQSPLSLPVTLGQPASISCKSSRSLLYSGGKTYLSWFQQRPGQSPRRLIYLVSKLDSGVPDRFSGSGSGTDFTLKISRVEAEDVGVYYCWQGIDFHQTFGGGTKVEIK
15 | 1.09 | 538 |  |  |  |  | anti-MS4A4A antibody 4A-342 (antibody, human IgG1, V domains shown, humanized 4A-21; human IgG1/kappa) VH: QIQLVQSGAEVKKPGASVKVSCKASGYIFTSYGLSWVRQAPGQGLEWMGWINTYSGVPTYAQKFQGRVTMTRDTSTSTVYMELSSLRSEDTAVYYCARSLVDYWGQGTLVTVSS VL: DVVMTQTPLSLSVTPGQPASISCKSSQSLLYSDGKTYLSWYLQKPGQPPQRLIYLVSKLDSGVPDRFSGSGSGTDFTLKISRVEAEDVGVYYCWQGIDFHQTFGGGTKVEIK
16 |  |  | 0.701 | 0.98 | 13700 | 0.874 | anti-MS4A4A antibody 4A-354 (antibody, V domains shown, full human IgG) VH: QVQLVQSGSELKKPGASVKVSCKASGYIFTSYGLSWVRQAPGQGLEWMGWINTYSGVPTYAQGFTGRFVFSLDTSVSTAYLQISSLKAEDTAVYYCARTLADYWGQGTLVTVSS VL: DVVMTQSPLSLPVTLGQPASISCKSSRSLLYSAGKTYLSWFQQRPGQSPRRLIYLVSKLDSGVPDRFSGSGSGTDFTLKISRVEAEDVGVYYCWQGIDFHQTFGGGTKVEIK
